# B1: recombinant human CAP1 (adenylyl cyclase-associated protein 1) (natural protein)
# chain: MADMQNLVERLERAVGRLEAVSHTSDMHRGYADSPSKAGAAPYVQAFDSLLAGPVAEYLKISKEIGGDVQKHAEMVHTGLKLERALLVTASQCQQPAENKLSDLLAPISEQIKEVITFREKNRGSKLFNHLSAVSESIQALGWVAMAPKPGPYVKEMNDAAMFYTNRVLKEYKDVDKKHVDWVKAYLSIWTELQAYIKEFHTTGLAWSKTGPVAKELSGLPSGPSAGSCPPPPPPCPPPPPVSTISCSYESASRSSLFAQINQGESITHALKHVSDDMKTHKNPALKAQSGPVRSGPKPFSAPKPQTSPSPKRATKKEPAVLELEGKKWRVENQENVSNLVIEDTELKQVAYIYKCVNTTLQIKGKINSITVDNCKKLGLVFDDVVGIVEIINSKDVKVQVMGKVPTISINKTDGCHAYLSKNSLDCEIVSAKSSEMNVLIPTEGGDFNEFPVPEQFKTLWNGQKLVTTVTEIAG
# Biological target: recombinant human PCSK9 with 6x His tag (proprotein convertase subtilisin/kexin type-9) (human, UniProt Q8NBP7 31-692)
# Assay: BLI
binder,measurement,value
B1,koff,0.00132 s⁻¹

# From publication PMC10981688 (2024)
